Target: PspGI-D138A selenomethionine variant (Pyrococcus GI-H)
Test: crystal structure

PspGI-D138A selenomethionine variant (enzyme)
stoichiometry N: 2

— paper PMC2577326
